{"source": "patent US20090155304A1", "about": "(OSEL, published 2009)", "binders": {"B1": {"name": "Lactobacillus-derived full-length APVT-CV-N (P51G) (other)", "chain": "APVTLGKFSQTCYNSAIQGSVLTSTCERTNGGYNTSSIDLNSVIENVDGSLKWQGSNFIETCRNTQLAGSSELAAECKTRAQQFVSTKINLDDHIANIDGTLKYE"}}, "key": {"[1]": {"target": "gp120 of CCR5-tropic HIV-1 BaL (on cell-free virus) (HIV-1 BaL)", "experiment": "cell-based or functional assay"}, "[2]": {"target": "gp120 of CXCR4-tropic HIV-1 IIIB (on cell-free virus) (HIV-1 IIIB)", "experiment": "cell-based or functional assay"}}, "data": [{"binder": "B1", "values": [{"measurement": "IC50, inhibition of CCR5-tropic HIVBaL infection (MAGI-R5-LTR-beta-gal attachment inhibition assay)", "setting": "[1]", "value": 0.3, "unit": "nM"}, {"measurement": "IC50, inhibition of CXCR4-tropic HIVIIIB (HeLa-LTR-beta-gal X4-tropic attachment assay)", "setting": "[2]", "value": "< 3", "unit": "nM"}]}]}
